These results are taken from article PMC4517869, “EIN3 and ORE1 Accelerate Degreening during Ethylene-Mediated Leaf Senescence by Directly Activating Chlorophyll Catabolic Genes in Arabidopsis”.

One data set has as its target T1, MBP-ORE1 (Arabidopsis thaliana, UniProt Q9FKA0 1-285).
T1 sequence: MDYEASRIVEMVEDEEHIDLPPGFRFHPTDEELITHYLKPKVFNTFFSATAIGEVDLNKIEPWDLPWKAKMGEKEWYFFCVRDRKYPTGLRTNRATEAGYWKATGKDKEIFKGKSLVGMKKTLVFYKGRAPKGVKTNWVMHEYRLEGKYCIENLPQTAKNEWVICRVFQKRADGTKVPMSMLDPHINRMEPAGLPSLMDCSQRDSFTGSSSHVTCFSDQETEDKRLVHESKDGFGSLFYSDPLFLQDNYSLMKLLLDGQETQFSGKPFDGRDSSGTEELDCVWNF
Briefly: EMSA; LightShift Chemiluminescent EMSA kit binding buffer (composition, pH, temperature not given); 400 ng protein, 12.5 fmol 5'-biotin probe, 1 ug poly(dI-dC), 15 min. Particulars: protein: recombinant; tags: N-terminal MBP (pMAL-c5g); chain copies: 2; label: 5'-biotin; blunt.

In data set [1] the target is T2, MBP-N-EIN3 (Arabidopsis thaliana, UniProt O24606 1-314).
T2 sequence: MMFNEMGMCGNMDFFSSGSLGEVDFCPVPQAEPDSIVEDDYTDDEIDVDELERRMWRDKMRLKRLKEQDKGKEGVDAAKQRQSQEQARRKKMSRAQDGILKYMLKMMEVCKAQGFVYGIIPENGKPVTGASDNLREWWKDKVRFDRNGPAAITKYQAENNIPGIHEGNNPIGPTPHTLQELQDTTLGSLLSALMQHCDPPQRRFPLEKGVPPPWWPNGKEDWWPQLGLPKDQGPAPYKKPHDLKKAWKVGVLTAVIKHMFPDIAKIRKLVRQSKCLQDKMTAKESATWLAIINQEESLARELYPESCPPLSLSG
The data set can be described thus: competition; unlabeled 800-fold excess vs NYC1-EBS; LightShift Chemiluminescent EMSA kit binding buffer (composition, pH, temperature not given); 400 ng protein, 12.5 fmol 5'-biotin probe, 1 ug poly(dI-dC), 15 min. Particulars: protein: recombinant; tags: N-terminal MBP (pMAL-c5g); chain copies: 2; blunt.

Data set [2] concerns the target T2, MBP-N-EIN3. Briefly: EMSA; LightShift Chemiluminescent EMSA kit binding buffer (composition, pH, temperature not given); 400 ng protein, 12.5 fmol 5'-biotin probe, 1 ug poly(dI-dC), 15 min. Particulars: protein: recombinant; tags: N-terminal MBP (pMAL-c5g); chain copies: 2; label: 5'-biotin; blunt.
Data set [3] has as its target T2, MBP-N-EIN3. The data set can be described thus: competition; unlabeled 800-fold excess vs PAO-EBS; LightShift Chemiluminescent EMSA kit binding buffer (composition, pH, temperature not given); 400 ng protein, 12.5 fmol 5'-biotin probe, 1 ug poly(dI-dC), 15 min. Conditions: protein: recombinant; tags: N-terminal MBP (pMAL-c5g); chain copies: 2; blunt. Background: In EMSA bound probe runs differently from free probe, usually more slowly.

The target of data set [4] is T2, MBP-N-EIN3. The data set can be described thus: competition; unlabeled 800-fold excess vs NYE1-EBS; LightShift Chemiluminescent EMSA kit binding buffer (composition, pH, temperature not given); 400 ng protein, 12.5 fmol 5'-biotin probe, 1 ug poly(dI-dC), 15 min. Conditions: protein: recombinant; tags: N-terminal MBP (pMAL-c5g); chain copies: 2; blunt.
Data set [5] concerns the target T2, MBP-N-EIN3. The data set can be described thus: competition; unlabeled 800-fold excess vs ORE1-EBS; LightShift Chemiluminescent EMSA kit binding buffer (composition, pH, temperature not given); 400 ng protein, 12.5 fmol 5'-biotin probe, 1 ug poly(dI-dC), 15 min. Conditions: protein: recombinant; tags: N-terminal MBP (pMAL-c5g); chain copies: 2; blunt.

B1: NYE1-OBS (dsDNA)
DNA 1: GTGGTTTCAGTGTACGAACACGCAAGAACTC
DNA 2: GAGTTCTTGCGTGTTCGTACACTGAAACCAC
As for B1, the binding result in the data set with MBP-ORE1 is recorded as “binds”.

B2: NYC1-EBSm (dsDNA)
DNA 1: TAATTTACTCAAAAAAAAAAGTAATGAC
DNA 2: GTCATTACTTTTTTTTTTGAGTAAATTA
On to B2, for which, in the data set with MBP-N-EIN3 [1], the binding result was “no binding”.

B3: PAO-OBS (dsDNA)
DNA 1: ATTGCATACTTGCACGCAATCTCTTCTTC
DNA 2: GAAGAAGAGATTGCGTGCAAGTATGCAAT
As for B3, the binding result in the data set with MBP-ORE1 is “binds”.

B4: PAO-EBS (dsDNA)
DNA 1: GCTTGAAATAAGATTCATCAGAAGAGTA
DNA 2: TACTCTTCTGATGAATCTTATTTCAAGC
Consider B4, for which, in the data set with MBP-N-EIN3 [2], the binding result is reported as “binds”.

B5: NYC1-OBS (dsDNA)
DNA 1: GAGGTTGCTGTAACGTGTGGCCATCACAC
DNA 2: GTGTGATGGCCACACGTTACAGCAACCTC
For the molecule B5, the binding result with MBP-ORE1 is reported as “binds”.

B6: NOL-OBS (dsDNA)
DNA 1: AGCTTGCTCGCTTACGCAACTCTCTCTCT
DNA 2: AGAGAGAGAGTTGCGTAAGCGAGCAAGCT
On to B6, for which the binding result with MBP-ORE1 is given as “binds”.

B7: NYC1-EBS (dsDNA)
DNA 1: TAATTTACTCAGGTACATAAGTAATGAC
DNA 2: GTCATTACTTATGTACCTGAGTAAATTA
Regarding B7, in the data set with MBP-N-EIN3 [2], the binding result was “binds”.

B8: PAO-EBSm (dsDNA)
DNA 1: GCTTGAAATAAAAAAAAACAGAAGAGTA
DNA 2: TACTCTTCTGTTTTTTTTTATTTCAAGC
As for B8, the binding result with MBP-N-EIN3 [3] is “no binding”.

B9: NYE1-EBSm (dsDNA)
DNA 1: GTTTAGGTAAGCAATTTTTTTTTGGATAAACGAAATGC
DNA 2: GCATTTCGTTTATCCAAAAAAAAATTGCTTACCTAAAC
For the molecule B9, the binding result with MBP-N-EIN3 [4] is on record as “no binding”.

B10: ACS2-OBS (dsDNA)
DNA 1: GGAATTATGTGGAGGACGTACGTTTATACATGTGCAGACTACAAC
DNA 2: GTTGTAGTCTGCACATGTATAAACGTACGTCCTCCACATAATTCC
In the case of B10, the binding result with MBP-ORE1 is given as “binds”.

B11: NYE1-EBS (dsDNA)
DNA 1: GTTTAGGTAAGCAATACGAACCTGGATAAACGAAATGC
DNA 2: GCATTTCGTTTATCCAGGTTCGTATTGCTTACCTAAAC
Take B11: the binding result with MBP-N-EIN3 [2] is “binds”.

B12: ORE1-EBSm (dsDNA)
DNA 1: ATACTTTACAAGGGTAATGCATGCATAC
DNA 2: GTATGCATGCATTACCCTTGTAAAGTAT
B12: the binding result with MBP-N-EIN3 [5] is “no binding”.
